One block for each substance: values may come before it.
Assays:
[1] = target: BRCA1 BRCT domains (UniProt P38398); assay: size exclusion chromatography, 1:1 versus 2:2 complex; details: reference: Ab1p (pS406 only); sites S404
[2] = target: BRCA1 BRCT domains (UniProt P38398); assay: native mass spectrometry, 15 µM; details: reference: Ab1p (pS406 only); sites S404
[3] = target: BRCA1 BRCT domains (UniProt P38398); assay: small angle X-ray scattering; details: reference: Ab1p (pS406 only); sites S404
[4] = target: BRCA1 BRCT domains (UniProt P38398); assay: size exclusion chromatography, 1 mg/ml; details: sites S406
[5] = target: BRCT-Ab2p complex (UniProt P38398); assay: native MS; peak fractions from gel filtration, 15 μM protein, 300 mM ammonium acetate pH 7.6, nano-electrospray

binding against the reference [1]: stronger | binding against the reference [2]: stronger | binding against the reference [3]: stronger | binding against the reference ([4]; reference: pS404-only peptide): gained
Substance: Abraxas 399-409 (from UniProt Q6UWZ7) Ab2p (pS404 pS406)

binding against the reference ([4]; reference: unphosphorylated peptide): gained
Substance: Abraxas 399-409 (from UniProt Q6UWZ7) pS406 peptide (Ab1p)

stoichiometry N [5]: 2
Substance: BRCT-Ab2p complex (from UniProt P38398 1646-1859)

— publication PMC4747905
